Experimental data from patent US12410234B2, “Compositions and methods for retrieving tumor-related antibodies and antigens” (THE TRUSTEES OF THE UNIVERSITY OF PENNSYLVANIA, priority 2018, dated 2025).

Assays:
[1] = test system: BON cells; assay: Flow cytometry binding of VHH1 to BON cells; parameters: species or system human
[2] = test system: BT474 cells; assay: Flow cytometry binding of VHH1 to BT474 cells; parameters: species or system human
[3] = test system: NT-3 cells; assay: Flow analysis of VHH1 binding to NT-3 cells; parameters: species or system human
[4] = test system: EC1 domain of CDH17; assay: Flow analysis of VHH1 on CDH17 truncations in HEK293T cells; type: binding, human
Description: (§1) FIGS. 22A-22C are series of images and graphs depicting that the VHH1 binds to the EC1 domain of CDH17. FIG. 22A is a schema showing human CDH17 truncations. […] FIG. 22C is a schematic diagram of CDH17 structure showing VHH1 binds to the N-terminal EC1 domain of CDH17.
(§2) In order to further confirm the antigen of VHH1 is CDH17, several CDH17 internal truncations were constructed. The truncations were transfected into HEK293T cells. […] Additionally, several CDH17 internal truncations were constructed (FIG. 22A) and transfected into HEK293T cells. Flow cytometry analysis was performed with the purified VHH1 nanobody and APC labeled anti-HA secondary antibody against HA on VHH1 nanobody. […] CDH17, a cell adhesion protein highly expressed in human NETs. CDH17 is a cell adhesion protein highly expressed in human NETs. […] One nanobody, named VHH1 was identified that specifically binds to CDH17 protein. […] VHH1 was sequenced and confirmed to contain the conserved VHH sequence (FIG. 14).

[5] = biological target: T1, EC1 domain of CDH17 (Homo sapiens, UniProt Q12864); assay: as above; type: binding
T1 construct: expressed in transfected cells; host or cells: HEK293T
T1 sequence (Q12864 23-832): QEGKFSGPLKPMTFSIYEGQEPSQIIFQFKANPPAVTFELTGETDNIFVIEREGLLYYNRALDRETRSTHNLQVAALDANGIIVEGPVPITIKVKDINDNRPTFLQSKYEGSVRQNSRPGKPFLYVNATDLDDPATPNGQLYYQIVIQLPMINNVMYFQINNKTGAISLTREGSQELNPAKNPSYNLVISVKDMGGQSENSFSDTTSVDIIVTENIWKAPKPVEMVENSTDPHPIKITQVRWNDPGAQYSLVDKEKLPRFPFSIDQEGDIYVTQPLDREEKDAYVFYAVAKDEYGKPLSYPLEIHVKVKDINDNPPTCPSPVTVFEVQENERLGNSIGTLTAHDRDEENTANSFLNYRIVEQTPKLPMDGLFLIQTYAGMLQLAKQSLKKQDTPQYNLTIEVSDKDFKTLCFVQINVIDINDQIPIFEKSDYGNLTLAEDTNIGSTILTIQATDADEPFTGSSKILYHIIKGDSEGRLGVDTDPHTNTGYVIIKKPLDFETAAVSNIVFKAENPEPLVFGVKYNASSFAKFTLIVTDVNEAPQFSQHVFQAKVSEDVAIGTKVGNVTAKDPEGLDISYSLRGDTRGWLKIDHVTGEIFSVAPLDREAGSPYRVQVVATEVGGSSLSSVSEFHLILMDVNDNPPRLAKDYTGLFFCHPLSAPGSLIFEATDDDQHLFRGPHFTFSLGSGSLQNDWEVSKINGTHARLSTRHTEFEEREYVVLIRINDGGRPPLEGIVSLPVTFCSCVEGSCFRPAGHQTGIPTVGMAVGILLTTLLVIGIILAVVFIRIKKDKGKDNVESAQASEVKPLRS
Description: as §1, §2

[6] = biological target: T2, mouse CDH17 (Mus musculus, UniProt Q9R100); assay: Flow cytometry of VHH1 phage on HEK293T cells transfected with mouse CDH17; type: binding; details: transiently transfected HEK293T
T2 construct: expressed in transfected cells; host or cells: HEK293T
T2 sequence (Q9R100 26-827): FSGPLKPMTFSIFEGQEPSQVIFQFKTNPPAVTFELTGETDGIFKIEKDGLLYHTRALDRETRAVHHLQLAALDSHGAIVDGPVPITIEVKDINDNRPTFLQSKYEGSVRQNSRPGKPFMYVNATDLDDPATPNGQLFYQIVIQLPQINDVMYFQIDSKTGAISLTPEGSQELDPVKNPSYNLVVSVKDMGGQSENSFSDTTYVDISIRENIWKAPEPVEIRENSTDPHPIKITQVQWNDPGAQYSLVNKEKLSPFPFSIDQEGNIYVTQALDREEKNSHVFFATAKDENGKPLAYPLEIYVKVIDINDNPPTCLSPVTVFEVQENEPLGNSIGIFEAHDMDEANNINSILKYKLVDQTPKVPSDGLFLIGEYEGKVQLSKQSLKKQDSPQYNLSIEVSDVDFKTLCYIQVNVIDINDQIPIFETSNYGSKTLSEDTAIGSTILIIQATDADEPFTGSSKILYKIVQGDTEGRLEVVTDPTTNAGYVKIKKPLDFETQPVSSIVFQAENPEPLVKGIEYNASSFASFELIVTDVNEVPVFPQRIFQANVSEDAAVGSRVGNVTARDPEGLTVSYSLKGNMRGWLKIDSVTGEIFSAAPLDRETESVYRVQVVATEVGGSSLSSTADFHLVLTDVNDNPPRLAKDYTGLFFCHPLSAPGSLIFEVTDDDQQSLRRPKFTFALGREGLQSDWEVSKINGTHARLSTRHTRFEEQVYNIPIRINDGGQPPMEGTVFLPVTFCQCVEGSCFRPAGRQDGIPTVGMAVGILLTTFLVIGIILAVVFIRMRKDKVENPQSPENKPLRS
Description: (§3) FIGS. 12A-12D are a series of graphs and images depicting isolation of VHH1 from a llama-derived […] antibody phage display naive library by panning to BON cells, as described in FIG. 1A. VHH1 was isolated from phage library and specifically bound human neuroendocrine tumor (NET) BON cells in vitro, but not other tumor cells such as breast cancer cells or leukemia cells, by positive or negative pannings, as illustrated in FIG. 1. […] FIG. 12B depicts the antigen of VHH1 is CDH17 (through DNA sequencing individual phage clones that specifically bound BON cells), as identified by screening the transfected cells. Flow analysis of VHH1 binding to CDH17 overexpressed in 293 cells is shown.
(§4) Next, to identify the protein antigen of the isolated VHH1 nanobody, ˜3000 human cell membrane protein cDNAs were prepared and transfected into HEK293T cells individually, followed by flow cytometry analysis with the VHH1-expressing phage and FITC-labeled secondary antibody against phage M13 protein (FIG. 12A). […] Human or mouse CDH17 cDNA was transiently transfected into HEK293T cells, followed by flow cytometry analysis with the VHH1-expressing phage and FITC-labeled secondary antibody against phage M13 protein.

[7] = test system: human pancreatic neuroendocrine tumor (PNET) samples; assay: Flow cytometry binding of VHH1 to human PNET biopsy samples; details: four fresh samples via biopsy from liver
[8] = biological target: T3, human full length CDH17 (Homo sapiens, UniProt Q12864); assay: Flow cytometry of VHH1 phage on HEK293T cells transfected with human CDH17; type: binding; details: screen of ~3000 cell surface proteins
T3 construct: expressed in transfected cells; host or cells: HEK293T
T3 sequence (Q12864 23-832): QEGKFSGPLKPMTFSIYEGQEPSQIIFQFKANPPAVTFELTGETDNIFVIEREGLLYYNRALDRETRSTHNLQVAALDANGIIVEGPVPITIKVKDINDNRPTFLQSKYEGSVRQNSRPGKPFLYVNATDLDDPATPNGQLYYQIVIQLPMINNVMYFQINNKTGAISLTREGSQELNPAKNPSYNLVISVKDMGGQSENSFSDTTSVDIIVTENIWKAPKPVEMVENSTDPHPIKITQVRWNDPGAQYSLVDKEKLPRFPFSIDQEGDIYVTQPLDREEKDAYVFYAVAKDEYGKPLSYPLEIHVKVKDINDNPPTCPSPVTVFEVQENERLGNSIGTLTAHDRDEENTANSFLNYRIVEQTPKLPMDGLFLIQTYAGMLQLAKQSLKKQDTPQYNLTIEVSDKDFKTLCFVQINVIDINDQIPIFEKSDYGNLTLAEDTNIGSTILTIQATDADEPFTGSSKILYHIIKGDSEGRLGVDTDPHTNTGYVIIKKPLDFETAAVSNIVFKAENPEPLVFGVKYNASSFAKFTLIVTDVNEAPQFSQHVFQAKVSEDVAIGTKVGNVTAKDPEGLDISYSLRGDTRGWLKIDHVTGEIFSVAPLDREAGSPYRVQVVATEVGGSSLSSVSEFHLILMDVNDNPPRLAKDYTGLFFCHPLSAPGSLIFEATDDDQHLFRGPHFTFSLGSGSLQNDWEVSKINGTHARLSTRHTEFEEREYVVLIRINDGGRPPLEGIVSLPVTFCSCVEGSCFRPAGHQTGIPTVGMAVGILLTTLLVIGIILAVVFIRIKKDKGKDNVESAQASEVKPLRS
Description: as §3, §4

[9] = test system: BON cells; assay: Flow cytometry binding of VLV or VLV-DM1 to BON cells; parameters: species or system human
Method: (§5) Scale bar: […]. […] Scale bar: […].

[10] = test system: CDH17-negative QGP1 cells; assay: In vitro killing of QGP1 cells by ADC (MTT assay); type: cell-based; details: cytotoxicity assay
Method: as §5

[11] = test system: QGP1 cells; assay: Flow cytometry binding of VLV or VLV-DM1 to QGP1 cells
Method: as §5

[12] = test system: BON cells; assay: In vitro killing of BON cells by ADC (MTT assay)
[13] = test system: patient-derived AML cells; assay: sCAR T plus Nb switch in patient-derived AML NSG mice; type: in vivo; details: sCAR T cells plus switch compared to sCAR T cell alone
Description: (§6) FIGS. 6A-6H are series of images and graphs depicting that Nb switch-activated CAR T cells eradicate AML in vivo in a controllable manner. FIGS. 6A-6B: Schematic diagram of switchable CAR T system. The Nb157 was expressed and purified by fusing with PNE, a fourteen amino acid peptide, either at N terminal or C terminal of the Nanobody. Primary human T cells were engineered by lentivirus transduction of scFv CAR that recognized PNE specifically. FIG. 6C: Test the affinity of Nb157, Nb157-N-PNE or Nb157-C-PNE against THP-1 cells by flow cytometry analysis. FIG. 6D: Killing assay of Nb157-PNE-mediated sCAR system against THP-1 cells in series of switch concentrations. […] The engraftment volumes were monitored by measuring the lengths and widths of the tumors. […] The primary leukemia or CAR T cells in the mouse peripheral blood were monitored by staining with CD33 or CD3 fluorescence labeled antibodies.
It was explored whether the switch CAR system can also suppress primary AML cells in mice. To this end, patient-derived AML cells were injected into the NSG mice to build leukemic mice model as determined by detection of the human CD33+ AML cells in the peripheral blood of the recipient mice (FIG. 6G). […] The appearance of CD33+ AML cells or CD3+ T cells in peripheral blood were monitored by flow cytometry analysis weekly.

[14] = test system: THP-1 cells; assay: Killing assay of Nb157-PNE-mediated sCAR system; type: cell-based, human; details: sCAR T to THP-1 2:1, 16 hours
Description: as §6, with “concentrations. The ratio of sCAR T to THP-1 was 2:1 and assay was performed after 16 hours incubation. FIG. 6E: 10 million THP-1 cells were transplanted into NSG mice subcutaneously to form the 150 mm^3 of tumors.” for “concentrations.”
Killing assays were performed as previously described (Cao, L. F. et al. (2010) Cytometry A 77, 534-545). […] Quantification were calculated by either Countbright beads or volume.

[15] = test system: THP-1 tumors; assay: sCAR T plus Nb switch in THP-1 xenograft NSG mice; type: in vivo; details: with sCAR T cells
Description: as §6, with “concentrations. The ratio of sCAR T to THP-1 was 2:1 and assay was performed after 16 hours incubation. FIG. 6E: 10 million THP-1 cells were transplanted into NSG mice subcutaneously to form the 150 mm^3 of tumors.” for “concentrations.”
To determine whether the inducible switch, in concert with the sCAR T cells, can kill tumor in mice, THP-1 cells were transplanted into NSG mice subcutaneously to form tumors. […] It was determined whether resumption of the Nb157 switch injection suppress the tumor growth again. […]

B1: VHH1: llama nanobody binding the EC1 domain of CDH17, SEQ ID NO: 2 (protein)
VHH: QVQLQESGGGLVQPGGSTRLSCVSSRTFSYYDMGWFRQAPGKEREFVALLSWNGENAEYSDSVMGRFTVSRGNTQNSVNLQMNNLKPEDTGIYYCAVTHGGARSVRSWGQGTQVTVSS
modifications: VHH1 nanobody
- binding to BON cells [1]: can be bound by VHH1
- binding to BT474 cells [2]: cannot be bound by VHH1
- binding to NT-3 cells [3]: robustly bound by VHH1
- binding to EC1 domain deleted truncation Del-1 [4]: completely lost the function to interact with VHH1 nanobody
- binding domain on CDH17 [5]: binds to the EC1 domain at the N-terminal part of CDH17
- binding to mouse CDH17 [6]: bound both human and mouse CDH17
- binding to human PNET samples [7]: robustly bound by VHH1
- binding to human CDH17 [8]: only bound to human full length CDH17

B2: VLV-DM1 (conjugate)
VHH 1: QVQLQESGGGLVQPGGSTRLSCVSSRTFSYYDMGWFRQAPGKEREFVALLSWNGENAEYSDSVMGRFTVSRGNTQNSVNLQMNNLKPEDTGIYYCAVTHGGARSVRSWGQGTQVTVSS
VHH 2: QVQLQESGGGLVQPGGSTRLSCVSSRTFSYYDMGWFRQAPGKEREFVALLSWNGENAEYSDSVMGRFTVSRGNTQNSVNLQMNNLKPEDTGIYYCAVTHGGARSVRSWGQGTQVTVSS
modifications: left off: things letters cannot carry; small tags and cut ends
- binding to BON cells [9]: bound to BON cells, albeit with slightly reduced affinity
- killing of QGP1 cells [10]: but not CDH17-negative QGP1 cells
- binding to QGP1 cells [11]: but not QGP1 cells
- lysis of BON cells (morphology) ([12]; at 4 nM, microscopic observation): lysed the BON cells
- killing of BON cells ([12]; cytotoxicity assay): significantly killed BON cells

B3: Nb157-C-PNE: Nb157 with C-terminal PNE, a fourteen amino acid peptide; inducible nanobody switch (protein)
chain: AAQAAQVQLQESGGGLVQPGGSLSLSCTASGFTFSSYSMAWVRQAPGKGPEWVSGIYPSDGKTRYADFVKGRFSISRDNAKNMLYLQMNNLEPEDTALYYCARGITGLGPRGQGTQVTVSSAA
modifications: left off: small tags and cut ends
notes: Nb157 with C-terminal PNE, a fourteen amino acid peptide; inducible nanobody switch
- survival (Kaplan Maier) [13]: significantly protected the leukemic mice from dying
- switch-triggered killing of THP-1 cells by sCAR T cells [14]: potently triggered the killing of THP-1 cells by the sCAR T cells
- tumor growth, THP-1 xenograft ([15]; first five times of switch injection): significantly slowed down growth
- tumor size ([15]; switch restarted from day 21, day 52): almost undetectable
